{"source": "patent US9951128B2", "about": "“Caninized anti-NGF antibodies and methods thereof” (ZOETIS SERVICES LLC, priority 2012, dated 2018)", "molecules": {"B1": {"name": "CanE3M 65112: caninized RN911 mAb: CAN-N2G9-VH (SEQ ID NO. 17), CAN-E3M-VL (SEQ ID NO. 16), CAN-65E-HC, CAN-KAPPA-LC (antibody, V domains shown)", "VH": "EVQLVESGGDLARPGGSLKLSCVVSGFSLIGYDINWVRQAPGKGLQWVTMIWGDGTTDYNSALKSRFTVSRDNAMNTVYLQMNSLRVEDTAVYYCARGGYYYGTSYYFDYWGQGTLVTVSS", "VL": "DIVMTQTPLSLSVSPGETASISCRASQDISNHLNWFRQKPGQSPQRLIYYISRFHSGVPDRFSGSGSGTDFTLRISRVEADDTGVYYCQQSKTLPYTFGAGTKLEIK", "modifications": "canine constant regions without entries; canine"}, "B2": {"name": "SSM66: affinity matured caninized mAb: CAN-SSM66-VH (SEQ ID NO. 29), CAN-SSME3M-VL (SEQ ID NO. 26) (antibody, V domains shown)", "VH": "B1 VH with G31E, D54T, Y101W, G103A", "VL": "B1 VL with D28S, H32N, R53S, K92H", "modifications": "canine"}, "B3": {"name": "SSM57: affinity matured caninized mAb: CAN-SSM57-VH (SEQ ID NO. 27), CAN-SSME3M-VL (SEQ ID NO. 26) (antibody, V domains shown)", "VH": "B1 VH with G31Q, Y101W, G103A", "VL": "B1 VL with D28S, H32N, R53S, K92H", "modifications": "canine"}, "B4": {"name": "SSM58: affinity matured caninized mAb: CAN-SSM58-VH (SEQ ID NO. 28), CAN-SSME3M-VL (SEQ ID NO. 26) (antibody, V domains shown)", "VH": "B1 VH with G31E, Y101W, G103A", "VL": "B1 VL with D28S, H32N, R53S, K92H", "modifications": "canine"}}, "key": {"[1]": {"target": "canine NGF", "sequence (as listed by the source)": "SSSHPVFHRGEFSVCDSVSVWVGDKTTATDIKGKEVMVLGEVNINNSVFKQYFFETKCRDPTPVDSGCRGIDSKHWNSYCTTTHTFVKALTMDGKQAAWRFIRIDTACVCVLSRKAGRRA", "experiment": "SPR (Biacore T100) binding of anti-NGF mAbs to canine NGF", "source_text": "As used herein, the term “affinity” refers to the strength of the binding of a single antigen-combining site with an antigenic determinant. Affinity depends on the closeness of stereochemical fit between antibody or antigen binding protein combining sites and antigen determinants, on the size of the area of contact between them, on the distribution of charged and hydrophobic groups, etc. Antibody affinity can be measured by equilibrium analysis or by the Surface Plasmon Resonance—“SPR” method (for example BIACORE™. The SPR method relies on the phenomenon of surface plasmon resonance (SPR), which occurs when surface plasmon waves are excited at a metal/liquid interface. Light is directed at, and reflected from, the side of the surface not in contact with sample, and SPR causes a reduction in the reflected light intensity at a specific combination of angle and wavelength. Bimolecular binding events cause changes in the refractive index at the surface layer, which are detected as changes in the SPR signal.\nThe generation of anti-drug antibodies (ADAs) can be associated with loss of efficacy for any biotherapeutic protein including monoclonal antibodies. Comprehensive evaluation of the literature has shown that speciation of monoclonal antibodies can reduce the propensity for mAbs to be immunogenic although examples of immunogenic fully human mAbs and non-immunogenic chimeric mAbs can be found. To help mitigate risks associated with ADA formation for the mouse anti-NGF, RN911, monoclonal antibody provided herein, a caninization strategy was employed. This caninization strategy is based on identifying the most appropriate canine germline antibody sequence for CDR grafting (FIG. 3). Following extensive analysis of all available canine germline sequences for both the heavy and light chains, germline candidates were selected on their homology to RN911, and the CDRs from RN911 were used to replace native canine CDRs. The objective was to retain high affinity and cell-based activity using fully canine frameworks to minimize the potential of immunogenicity in vivo. Caninized mAbs were optimized for mammalian expression, expressed and characterized for their ability to bind NGF via SPR. […] Only mAbs that retained both reliable expression levels and the ability to bind NGF following caninization were advanced for further characterization.\n(§1) Affinities of each caninized anti-NGF antibody to canine NGF were measured using SPR (Surface Plasmon Resonance). In addition, a functional in vitro assay was developed to measure inhibition constants for the mAbs ability to inhibit binding of NGF to TrkA. […] Some affinity was lost, however, upon caninization to mAb CAN-N2G9-VH, CAN-E3M. Due to this loss of affinity, the caninized mAb was affinity matured (see Example 5 for details) to regain potency. Included in FIGS. 12 and 13 are the results of the affinity matured products, SSM57 (SEQ ID NO. 27 “CAN-SSM57-VH”, SEQ ID NO. 26 “CAN-SSME3M-VL”), SSM58 (SEQ ID NO. 28 CAN-SSM58-VH, SEQ ID NO. 26 “CAN-SSME3M-VL”), and SSM66 (SEQ ID NO.29 CAN-SSM66, SEQ ID NO. 26 CAN-SSME3M-VL) on each SPR assay.\nSPR on the supernatants were performed as an initial screen, good binders were purified, and pure mAb was again run via SPR to measure binding to canine NGF (TABLE 5). Constructs LTM109 and LTM135 were chosen to progress based on binding affinities.\nVarious KD's correspond to different sensors, surface density varies slightly.\nMutated antibodies were expressed in HEK293 cells and evaluated for binding affinities to canine NGF (results below; expression results in Tables 7-9)."}, "[2]": {"test_system": "NGF binding to receptor trkA", "sequence (as listed by the source)": "as above", "experiment": "Functional in vitro assay: inhibition of NGF binding to TrkA (pre-incubated mAb+NGF)", "format": "biochemical", "procedure": "FIGS. 12A and B is a graphical representation of affinity data of caninized mAb (left). (Right) trkA inhibition data with pre-incubated mAb+NGF. (Bottom)\nas §1"}, "[3]": {"test_system": "beagle (LPS-induced) synovitis pain model", "experiment": "Dog LPS-induced synovitis pain model, lameness by visual analogue scale", "format": "in vivo", "details": "synovitis induced 7 and 28 days post-dose", "procedure": "PK/PD data were generated with RN911 in the target species in a synovitis efficacy study. In the synovitis pain model, transient inflammation of the synovial membrane in a single stifle is induced via intra-articular injection of bacterial lipopolysaccharide (LPS). Quantifiable lameness occurs within 2h of synovitis induction, peaks at 3-4h, is waning by 6h and is fully resolved after 24h. From an IACUC perspective, it is acceptable to induce synovitis on two separate occasions (i.e., once in each stifle), provided the lameness associated with the first synovitis induction has fully resolved. Therefore we designed a study in which synovitis was induced in the same beagle 3 days and 7 days after IV treatment (RN911 or PBS vehicle). After each synovitis induction, lameness was quantified using a visual analogue scale (VAS).\nAt this time, the free RN911 serum concentrations averaged 24400±3900 ng/mL (170±27 nM; FIG. 2).\nCaninized mAb (CAN-SSME3M-VL, CAN-SSM57-HC) was tested in dog synovitis model at 5 mg/kg IV and 5 mg/kg SC. Results of study are shown in FIG. 14, inducing synovitis at 7 days and 28 days post-dose."}, "[4]": {"test_system": "rat MIA model of osteoarthritis", "experiment": "Rat MIA osteoarthritis model, weight bearing test", "format": "in vivo, Rat Ola Wistar", "details": "dosed on study day 7 and study day 14", "procedure": "Osteoarthritis (OA) is a degenerative joint disease characterized by joint pain and a progressive loss of articular cartilage. Intra-articular injection of MIA induces loss of articular cartilage with progression of subchondral bone lesions that mimic those of OA. This model offers a rapid and minimally invasive method to reproduce OA-like lesions in a rodent species.\nPain was assessed using weight bearing test for sustained pain and joint compression (Randall Selitto) test for mechanical hyperalgesia. See FIG. 17 for a schematic of the rat MIA procedure.\nThis training regime was required as it was anticipated that the level of variability within the experiment is relatively high. […]\nWeight bearing deficits were measured in all rats on study day −1, this measurement served as a baseline. Weight bearing was then recorded on study days 9, 16, 21 and 28. […]\nThe weight bearing of each leg was measured separately by weight bearing apparatus (IITC, Series 8, Model 600®). This test quantifies the spontaneous postural changes reflecting spontaneous pain by independently measuring, on two separate sensors, the weight that the animal applies on each hind paw.\nResults were calculated and represented as the percentage of weight that the animal leaned on the injected right leg or intact left leg from the total amount of leaned weight on the two hind legs. […]"}, "[5]": {"details": "canine NGF, 1:1 Binding fit, Table 9"}}, "note": "Substitutions are numbered along the chain they refer to. Numbers in names are those of the source. Where two headings read alike, the source gives them in different places.", "data": [{"molecule": "B1", "values": [{"measurement": "Kd", "setting": "[1]; Dog NGF, Biacore T100, purified mAb, run 11/8 (different sensors), read-out: KD (M) 11/8", "result": "3.35e-09", "unit": "M"}, {"measurement": "Kd", "setting": "[1]; Dog NGF, Biacore T100, purified mAb, run 11/22 (different sensors), read-out: KD (M) 11/22", "result": "1.46e-09", "unit": "M"}, {"measurement": "Kd", "setting": "[1]; Dog NGF, Biacore T100, purified mAb, run 11/24 (different sensors), read-out: KD (M) 11/24", "result": "2.35e-09", "unit": "M"}, {"measurement": "Kd", "setting": "[1]; Dog NGF, Biacore T100, purified mAb, run 11/29 (different sensors), read-out: KD (M) 11/29", "result": "3.51e-09", "unit": "M"}, {"measurement": "Binding of mAbs to NGF (FIGS. 12 and 13)", "setting": "[1]; SPR", "result": "high affinity binding"}, {"measurement": "ka", "setting": "[1]; [5]", "result": 17200, "unit": "M⁻¹ s⁻¹"}, {"measurement": "kd", "setting": "[1]; [5]", "result": "8.11e-05", "unit": "s⁻¹"}, {"measurement": "Kd", "setting": "[1]; canine NGF, 1:1 Binding fit, Table 9, read-out: KD", "result": "4.7e-09", "unit": "M"}, {"measurement": "Binding to canine NGF after caninization / framework substitution", "setting": "[1]; expressed in HEK 293", "result": "retained NGF binding"}, {"measurement": "Inhibition by mAbs of NGF binding to receptor trkA", "setting": "[2]", "result": "potent inhibition"}]}, {"molecule": "B2", "values": [{"measurement": "Binding affinities to canine NGF among SSM mutated antibodies", "setting": "[1]", "result": "highest affinities"}]}, {"molecule": "B3", "values": [{"measurement": "Efficacy in dog synovitis model", "setting": "[3]; 5 mg/kg IV", "result": "showed efficacy"}, {"measurement": "Efficacy in dog synovitis model", "setting": "[3]; 5 mg/kg SC", "result": "showed efficacy"}, {"measurement": "Binding affinities to canine NGF among SSM mutated antibodies", "setting": "[1]", "result": "highest affinities"}, {"measurement": "Analgesic effect in the rat MIA model of osteoarthritis", "setting": "[4]", "result": "demonstrated"}]}, {"molecule": "B4", "values": [{"measurement": "Binding affinities to canine NGF among SSM mutated antibodies", "setting": "[1]", "result": "highest affinities"}]}]}
